Measured values reported in EP4667494A2 (Fundación Instituto de Investigación Sanitaria Fundación …, dated 2025).
Numbering of substitutions follows the chain as printed.

T1: CD79b (UniProt P40259 29-229, limits assumed)
T1 construct: whole, on cells; Endogenous CD79b on human lymphoma cell lines
T1 sequence (looked up): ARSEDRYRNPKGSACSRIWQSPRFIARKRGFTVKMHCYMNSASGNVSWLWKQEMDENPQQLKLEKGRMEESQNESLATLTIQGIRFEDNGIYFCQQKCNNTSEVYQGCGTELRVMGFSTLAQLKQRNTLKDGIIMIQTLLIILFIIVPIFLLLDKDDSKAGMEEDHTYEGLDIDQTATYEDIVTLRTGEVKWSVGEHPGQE

B1: CARLY1 monoclonal murine antibody against CD79b (antibody, V domains shown)
VH: QVQLQQPGAELVRPGASVKLSCKASGYTFTSYWMNWVKQRPGQGLEWIGMIDPSDSETHYNQMFRDKATLTVDKPSNTAYMQLSRLTSEDSAVYYCARALGYWGQGTSVTVSS
VL: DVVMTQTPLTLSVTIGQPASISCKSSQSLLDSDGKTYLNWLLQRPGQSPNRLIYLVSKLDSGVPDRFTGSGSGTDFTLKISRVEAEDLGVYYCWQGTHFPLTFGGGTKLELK
notes: Murine monoclonal from a hybridoma, made by an external service; The variable domains are tied to the name CARLY 1 in the definition section
B2: CARLY2 monoclonal murine antibody against CD79b (antibody, V domains shown)
VH: B1 VH with S31T, R65K, P75S, N77T, R85S, A99T, G101S, S108L, S113A
VL: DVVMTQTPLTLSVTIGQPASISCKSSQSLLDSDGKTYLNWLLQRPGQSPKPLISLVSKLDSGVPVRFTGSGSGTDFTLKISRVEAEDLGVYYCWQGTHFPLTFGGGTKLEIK
notes: Murine monoclonal from a hybridoma; it was detected with anti-mouse IgG-Alexa647 in confocal microscopy
B3: CARLY3 monoclonal murine antibody against CD79b (antibody, V domains shown)
VH: QVQLQQPGAELVRPGASLKLSCKTSGYTFTDYWMNWVKQRPGQGLEWIGMIDPSDSETHYNQMFKDKATLTVDKSSSTAYMQLSSLTSEDSAVYYCTRNLNYWGQGTTLTVSS
VL: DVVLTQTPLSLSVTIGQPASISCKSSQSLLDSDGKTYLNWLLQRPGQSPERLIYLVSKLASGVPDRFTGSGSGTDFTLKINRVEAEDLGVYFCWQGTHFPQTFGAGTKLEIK
notes: as for B2

What follows are binders tested against T1, CD79b (assay: flow cytometry on NHL cell lines Ramos and Daudi).

binding result | Binder
binds | B1
binds | B2
binds | B3
